Target: P116 (residues 30–957), recombinant ectodomain of Mycoplasma pneumoniae P116 (Mycoplasma pneumoniae, UniProt P75556)
Experiment: cryo-EM structure

Chain of P116 (residues 30–957), recombinant ectodomain of Mycoplasma pneumoniae P116 (P75556 30-957): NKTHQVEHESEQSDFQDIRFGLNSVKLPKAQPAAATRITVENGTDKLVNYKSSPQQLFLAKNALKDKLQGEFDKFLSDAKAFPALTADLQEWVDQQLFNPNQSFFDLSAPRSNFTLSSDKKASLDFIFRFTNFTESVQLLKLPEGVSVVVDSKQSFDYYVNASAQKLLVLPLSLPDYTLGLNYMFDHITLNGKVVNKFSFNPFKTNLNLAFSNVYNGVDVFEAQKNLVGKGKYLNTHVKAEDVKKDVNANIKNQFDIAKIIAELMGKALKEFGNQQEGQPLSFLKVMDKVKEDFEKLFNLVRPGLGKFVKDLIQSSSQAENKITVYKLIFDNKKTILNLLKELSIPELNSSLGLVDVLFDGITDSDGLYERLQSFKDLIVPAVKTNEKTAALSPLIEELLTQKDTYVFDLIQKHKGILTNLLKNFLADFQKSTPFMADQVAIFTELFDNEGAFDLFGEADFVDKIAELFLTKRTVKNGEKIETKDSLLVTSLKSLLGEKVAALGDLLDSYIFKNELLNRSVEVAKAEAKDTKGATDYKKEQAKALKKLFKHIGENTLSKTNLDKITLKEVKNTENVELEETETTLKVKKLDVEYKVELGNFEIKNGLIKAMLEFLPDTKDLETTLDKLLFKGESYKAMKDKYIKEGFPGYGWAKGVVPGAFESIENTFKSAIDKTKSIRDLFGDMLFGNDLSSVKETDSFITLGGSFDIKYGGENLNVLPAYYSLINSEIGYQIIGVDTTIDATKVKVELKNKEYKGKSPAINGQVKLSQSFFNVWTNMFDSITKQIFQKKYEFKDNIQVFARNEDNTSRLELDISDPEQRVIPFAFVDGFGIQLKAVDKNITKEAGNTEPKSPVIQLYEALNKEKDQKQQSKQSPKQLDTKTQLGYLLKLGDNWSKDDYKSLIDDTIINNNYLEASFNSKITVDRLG

B1: monoclonal antibody (mAb) 3G9 against P116 (antibody, V domains shown)
VH: QVQLQQPGAELVKPGASVKLSCKASGYSFITYWMRWVRQRPGQGLEWIGQINPSNGHTNYDEKFKDRATLTVDKSSTTAYLQLSSLTSDDSAVYFCARSWEAMDYWGQGTSVTVSS
VL: DIVLTQSPATLSVTPGDSVSLSCRASQGISNNLHWYQQKSHESPRLLIKYASQSFSGIPSRFSGSGSGTVFTLTINSVETEDFGVYFCQQSYSWPIFTFGSGTNLQIK
B1: binds.

From paper PMC12708652 (Nature Communications, 2025)
